For assay [1], the target named is Hyaluronan and proteoglycan link protein 4 (mouse) (UniProt Q80WM4). Kind of assay: peptide-affinity chromatography of PBI mouse brain lysate, elution with free CAQK, LC-MS/MS.
For assay [2], the target named is T1, Versican core protein (mouse, UniProt Q62059 24-3357, limits assumed).
T1 construct: Native chondroitin sulfate proteoglycan from brain lysate, identified by LC-MS/MS against the Mus musculus UniProt database; also called VCAN
The description is as above.

For assay [3], the target named is Tenascin-R (mouse) (UniProt Q8BYI9). Described as above.
Tenascin-R (mouse), sequence (Q8BYI9 32-1358 limits assumed): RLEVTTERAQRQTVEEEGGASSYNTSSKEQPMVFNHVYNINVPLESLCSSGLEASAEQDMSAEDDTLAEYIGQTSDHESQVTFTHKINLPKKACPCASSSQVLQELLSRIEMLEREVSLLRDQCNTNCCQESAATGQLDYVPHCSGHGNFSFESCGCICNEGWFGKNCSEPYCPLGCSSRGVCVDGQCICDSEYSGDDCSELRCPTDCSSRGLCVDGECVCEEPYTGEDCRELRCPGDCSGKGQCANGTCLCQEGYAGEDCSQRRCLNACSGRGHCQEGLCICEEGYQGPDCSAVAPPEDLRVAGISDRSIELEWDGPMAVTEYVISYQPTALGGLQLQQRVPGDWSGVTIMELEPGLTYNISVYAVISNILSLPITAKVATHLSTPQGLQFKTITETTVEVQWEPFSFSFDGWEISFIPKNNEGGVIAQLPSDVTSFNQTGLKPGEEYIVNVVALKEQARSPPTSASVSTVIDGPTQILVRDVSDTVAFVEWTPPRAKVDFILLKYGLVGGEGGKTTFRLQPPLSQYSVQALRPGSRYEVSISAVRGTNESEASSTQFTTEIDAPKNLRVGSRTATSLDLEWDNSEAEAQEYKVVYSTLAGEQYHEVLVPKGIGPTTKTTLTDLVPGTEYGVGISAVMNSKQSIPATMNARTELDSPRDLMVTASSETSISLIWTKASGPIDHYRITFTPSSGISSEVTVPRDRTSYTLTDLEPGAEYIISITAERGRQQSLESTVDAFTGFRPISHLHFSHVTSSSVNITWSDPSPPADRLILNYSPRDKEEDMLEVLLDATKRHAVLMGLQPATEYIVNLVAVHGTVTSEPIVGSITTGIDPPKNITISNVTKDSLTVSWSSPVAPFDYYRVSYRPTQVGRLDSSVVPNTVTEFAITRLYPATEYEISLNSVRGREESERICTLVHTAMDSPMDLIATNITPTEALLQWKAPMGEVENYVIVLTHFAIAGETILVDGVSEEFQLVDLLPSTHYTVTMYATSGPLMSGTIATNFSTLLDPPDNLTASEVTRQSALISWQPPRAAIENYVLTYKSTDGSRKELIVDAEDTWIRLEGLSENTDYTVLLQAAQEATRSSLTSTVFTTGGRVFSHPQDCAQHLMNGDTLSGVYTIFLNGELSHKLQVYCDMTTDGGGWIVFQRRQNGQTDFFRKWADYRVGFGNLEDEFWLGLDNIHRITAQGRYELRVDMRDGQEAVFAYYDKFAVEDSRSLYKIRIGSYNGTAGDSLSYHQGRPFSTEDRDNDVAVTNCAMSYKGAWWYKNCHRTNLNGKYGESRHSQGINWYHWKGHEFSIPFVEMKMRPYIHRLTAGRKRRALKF
Assay [4] shares this target. Nature of the assay: peptide-affinity chromatography of PBI mouse brain lysate, LC-MS/MS.
Assay [5] addresses T1, Versican core protein. Nature of the assay: peptide-affinity chromatography of PBI mouse brain lysate, LC-MS/MS (empty column denotes protein was not detected). The method, then:
(§1) Affinity Chromatography and Proteomics. For identifying CAQK binding proteins, mouse brains with brain injury were collected 6 hrs after injury. Using liquid nitrogen, the brains were crushed and ground into powder using a mortar and pestle. Next, brain tissue was lysed in PBS containing 200 mM n-octyl-beta-D-glucopyranoside and protease inhibitor cocktail (Roche) as described (Teesalu et al., PNAS 16157-16162 (2009)). The cleared lysate was loaded on to CAQK or control peptide (CGGK) coated Sulfolink-agarose beads (Pierce, Waltham, Mass.) and incubated at 4° C. for 3-4 hrs. The column was washed with wash buffer (75 mM octyl-beta-D-glucopyranoside and protease inhibitor cocktail in PBS) followed by washing with 0.5 mM control peptide in wash buffer to remove nonspecifically bound proteins. The bound proteins were eluted with 2 mM free CAQK peptide. The eluted factions were pooled, their protein concentration determined by using bicinchoninic acid (BCA) protein assay (Thermo Fischer) and the samples were digested using the Filter-aided Sample Preparation (FASP) method (Wisniewski et al., Nat Methods 6:359-362 (2009)). […] All mass spectra were analyzed with MaxQuant software version 1.5.0.25. […] Empty column denotes protein was not detected.

The target in assay [6] is T2, Hyaluronan and proteoglycan link protein 4 (mouse, UniProt Q80WM4 31-400).
T2 construct: Native protein from brain lysate, identified by LC-MS/MS; also called Hapln4; HAPLN4
T2 sequence (Q80WM4 31-400 limits assumed): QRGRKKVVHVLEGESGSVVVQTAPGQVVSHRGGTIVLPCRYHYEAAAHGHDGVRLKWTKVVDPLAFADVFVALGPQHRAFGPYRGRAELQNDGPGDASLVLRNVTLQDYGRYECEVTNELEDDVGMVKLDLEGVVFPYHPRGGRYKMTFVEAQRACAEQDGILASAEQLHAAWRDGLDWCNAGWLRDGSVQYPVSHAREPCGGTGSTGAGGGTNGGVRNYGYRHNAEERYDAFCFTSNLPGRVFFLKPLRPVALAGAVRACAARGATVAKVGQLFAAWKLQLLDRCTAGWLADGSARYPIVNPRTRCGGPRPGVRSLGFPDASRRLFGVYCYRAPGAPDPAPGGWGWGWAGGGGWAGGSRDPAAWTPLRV
The description is as above. As to the method: as §1

No end group written: not given here.

T1 sequence (Q62059 24-3357 limits assumed): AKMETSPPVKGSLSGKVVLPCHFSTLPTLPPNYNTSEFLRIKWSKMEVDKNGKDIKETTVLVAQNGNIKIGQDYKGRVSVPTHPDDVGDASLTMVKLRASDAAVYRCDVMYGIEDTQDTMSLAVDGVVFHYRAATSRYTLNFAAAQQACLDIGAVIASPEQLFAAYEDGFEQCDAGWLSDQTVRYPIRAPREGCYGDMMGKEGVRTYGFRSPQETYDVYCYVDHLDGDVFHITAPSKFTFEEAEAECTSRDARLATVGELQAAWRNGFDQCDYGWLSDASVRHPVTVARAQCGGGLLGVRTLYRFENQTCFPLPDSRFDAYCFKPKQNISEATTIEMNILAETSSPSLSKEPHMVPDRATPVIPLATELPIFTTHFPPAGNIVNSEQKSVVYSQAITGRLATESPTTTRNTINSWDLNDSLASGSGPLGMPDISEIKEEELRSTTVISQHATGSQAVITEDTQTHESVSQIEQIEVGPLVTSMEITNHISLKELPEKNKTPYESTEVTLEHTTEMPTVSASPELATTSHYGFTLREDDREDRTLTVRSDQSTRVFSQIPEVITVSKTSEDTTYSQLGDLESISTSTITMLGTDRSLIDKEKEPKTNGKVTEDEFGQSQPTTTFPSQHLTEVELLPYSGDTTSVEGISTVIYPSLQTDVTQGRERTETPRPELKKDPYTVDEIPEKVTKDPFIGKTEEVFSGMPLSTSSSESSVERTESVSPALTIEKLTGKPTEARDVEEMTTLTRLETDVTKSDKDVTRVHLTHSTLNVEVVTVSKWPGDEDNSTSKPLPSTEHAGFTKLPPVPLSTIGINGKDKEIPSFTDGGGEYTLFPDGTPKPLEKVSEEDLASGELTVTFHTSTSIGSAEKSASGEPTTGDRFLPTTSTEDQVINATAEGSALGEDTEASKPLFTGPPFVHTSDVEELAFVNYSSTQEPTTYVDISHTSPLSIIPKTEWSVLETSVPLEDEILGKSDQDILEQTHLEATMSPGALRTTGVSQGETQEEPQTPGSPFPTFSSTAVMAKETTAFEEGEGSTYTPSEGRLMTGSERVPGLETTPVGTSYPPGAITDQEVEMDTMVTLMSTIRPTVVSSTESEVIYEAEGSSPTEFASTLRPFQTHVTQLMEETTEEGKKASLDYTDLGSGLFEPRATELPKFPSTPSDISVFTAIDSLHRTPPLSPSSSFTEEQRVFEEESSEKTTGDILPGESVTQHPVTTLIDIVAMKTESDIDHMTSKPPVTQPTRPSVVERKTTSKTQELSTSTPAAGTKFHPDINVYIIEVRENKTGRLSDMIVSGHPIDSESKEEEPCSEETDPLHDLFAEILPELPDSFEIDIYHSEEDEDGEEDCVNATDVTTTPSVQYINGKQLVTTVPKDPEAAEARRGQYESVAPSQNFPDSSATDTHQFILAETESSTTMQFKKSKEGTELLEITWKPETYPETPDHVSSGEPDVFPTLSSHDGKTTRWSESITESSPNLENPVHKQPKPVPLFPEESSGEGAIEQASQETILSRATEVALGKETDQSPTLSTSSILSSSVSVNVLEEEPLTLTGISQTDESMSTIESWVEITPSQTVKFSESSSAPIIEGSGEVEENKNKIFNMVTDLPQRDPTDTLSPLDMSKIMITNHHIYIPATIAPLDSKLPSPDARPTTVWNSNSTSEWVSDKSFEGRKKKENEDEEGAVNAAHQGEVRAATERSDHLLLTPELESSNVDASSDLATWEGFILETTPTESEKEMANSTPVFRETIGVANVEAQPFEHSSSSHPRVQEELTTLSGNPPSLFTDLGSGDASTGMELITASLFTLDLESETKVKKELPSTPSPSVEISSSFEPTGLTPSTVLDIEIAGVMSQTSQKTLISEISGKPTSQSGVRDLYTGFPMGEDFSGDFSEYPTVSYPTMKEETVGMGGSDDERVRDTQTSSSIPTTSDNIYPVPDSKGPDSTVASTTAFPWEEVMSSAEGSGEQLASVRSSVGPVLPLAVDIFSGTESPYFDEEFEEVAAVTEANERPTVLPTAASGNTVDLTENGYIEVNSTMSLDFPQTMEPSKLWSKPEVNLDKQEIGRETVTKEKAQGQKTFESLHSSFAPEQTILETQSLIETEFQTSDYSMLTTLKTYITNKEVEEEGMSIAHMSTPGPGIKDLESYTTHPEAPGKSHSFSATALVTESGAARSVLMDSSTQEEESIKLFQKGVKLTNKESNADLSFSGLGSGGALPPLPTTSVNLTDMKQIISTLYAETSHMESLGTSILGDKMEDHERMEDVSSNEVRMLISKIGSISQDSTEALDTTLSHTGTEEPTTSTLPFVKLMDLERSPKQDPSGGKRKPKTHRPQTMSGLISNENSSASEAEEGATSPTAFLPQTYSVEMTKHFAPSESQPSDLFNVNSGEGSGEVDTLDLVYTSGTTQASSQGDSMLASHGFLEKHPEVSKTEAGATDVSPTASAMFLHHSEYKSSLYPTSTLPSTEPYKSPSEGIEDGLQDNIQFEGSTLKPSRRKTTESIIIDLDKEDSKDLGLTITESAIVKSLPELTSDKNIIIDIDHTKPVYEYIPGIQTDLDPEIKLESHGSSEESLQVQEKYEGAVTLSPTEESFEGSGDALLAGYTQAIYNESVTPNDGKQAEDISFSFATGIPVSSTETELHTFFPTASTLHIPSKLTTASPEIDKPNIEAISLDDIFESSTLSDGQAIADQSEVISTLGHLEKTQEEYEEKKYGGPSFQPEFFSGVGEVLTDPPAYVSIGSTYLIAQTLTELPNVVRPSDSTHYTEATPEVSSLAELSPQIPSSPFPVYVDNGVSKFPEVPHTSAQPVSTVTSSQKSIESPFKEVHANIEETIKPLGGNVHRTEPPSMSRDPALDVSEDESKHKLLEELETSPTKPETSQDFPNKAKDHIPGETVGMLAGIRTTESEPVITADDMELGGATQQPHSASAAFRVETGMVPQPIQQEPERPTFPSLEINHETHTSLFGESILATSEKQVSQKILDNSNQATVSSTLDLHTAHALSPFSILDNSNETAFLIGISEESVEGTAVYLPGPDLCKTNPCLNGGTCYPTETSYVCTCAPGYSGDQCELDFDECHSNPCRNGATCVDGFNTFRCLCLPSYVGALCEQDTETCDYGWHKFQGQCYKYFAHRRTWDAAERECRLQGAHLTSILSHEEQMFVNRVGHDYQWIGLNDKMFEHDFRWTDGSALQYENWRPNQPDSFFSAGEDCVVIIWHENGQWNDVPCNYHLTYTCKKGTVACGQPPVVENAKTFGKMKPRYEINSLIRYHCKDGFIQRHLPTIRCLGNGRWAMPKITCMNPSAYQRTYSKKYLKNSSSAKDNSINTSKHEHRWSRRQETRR
Hyaluronan and proteoglycan link protein 4 (mouse), sequence (Q80WM4 31-400 limits assumed): as the sequence (Q80WM4 31-400 limits assumed) above

On to CAQK peptide, for which the Log2 LFQ intensity (log2 LFQ intensity) in assay [1] came out at 19.8; in assay [2], 26; in assay [3] it was 26.7.
Consider control peptide (CGGK), for which the Log2 LFQ intensity (log2 LFQ intensity) in assay [4] stood at 24.1.
Turning to CGGK (not fully specified (N-terminus, C-terminus), also called CGGK column) [control peptide (CGGK)], the binding result in assay [5] and in assay [6] was “no binding” each time.

Source of the values: patent US20180296696A1 (SANFORD BURNHAM PREBYS MEDICAL DISCOVERY INSTITUTE, published 2018).
